B1: Guanyl-specific ribonuclease T1, P00651 (parent)
chain: MMYSKLLTLTTLLLPTALALPSLVERACDYTCGSNCYSSSDVSTAQAAGYQLHEDGETVGSNSYPHKYNNYEGFDFSVSSPYYEWPILSSGDVYSGGSPGADRVVFNENNQLAGVITHTGASGNNFVECT

Data on one variant can be found in FireProtDB (doi:10.1111/j.1432-1033.1996.00516.x).

Variants of B1 are the subject of one series. The following applies: Aspergillus oryzae (strain ATCC 42149 / RIB 40); pH 5; 10 °C; GdnHCl; Fluorescence; Sodium acetate 0.1 M; reversible: yes; structure 1RN1; whole UniProt chain shown.
Take MMYSKLLTLTTLLLPTALALPSLVERACDYTCGSNCYSSSDVSTAQAAGYQLHEDGETVGSNSYPHKYNNYEGFDFSVSSPYYEWPILSSGDVYSGGSVGADRVVFNENNQLAGVITHTGASGNNFVECT: the “ddG of mutation (higher = less stable)” value is -1.53 kcal/mol, the denaturant m value was 3.01 kcal/mol/M and the “denaturant midpoint (higher = more stable)” value (from here on “denaturant midpoint”) turned out to be 3.43 M.

Still in this series, the particulars now being: Aspergillus oryzae (strain ATCC 42149 / RIB 40); pH 8; 10 °C; GdnHCl; Fluorescence; PIPES 0.1 M; reversible: yes; structure 1RN1; whole UniProt chain shown.
For MMYSKLLTLTTLLLPTALALPSLVERACDYTCGSNCYSSSDVSTAQAAGYQLHEDGETVGSNSYPHKYNNYEGFDFSVSSPYYEWPILSSGDVYSGGSVGADRVVFNENNQLAGVITHTGASGNNFVECT, the “ddG of mutation (higher = less stable)” value was -2.44 kcal/mol, the denaturant m value was found to be 3.18 kcal/mol/M and the “denaturant midpoint” value was determined as 2.44 M.

The same series, now with this note: Aspergillus oryzae (strain ATCC 42149 / RIB 40); pH 8; 25 °C; GdnHCl; Fluorescence; PIPES 0.1 M; reversible: yes; structure 1RN1; whole UniProt chain shown.
For the variant MMYSKLLTLTTLLLPTALALPSLVERACDYTCGSNCYSSSDVSTAQAAGYQLHEDGETVGSNSYPHKYNNYEGFDFSVSSPYYEWPILSSGDVYSGGSVGADRVVFNENNQLAGVITHTGASGNNFVECT, the “ddG of mutation (higher = less stable)” value was -2.01 kcal/mol, the denaturant m value stood at 2.7 kcal/mol/M and the “denaturant midpoint” value worked out at 1.66 M.
